From paper PMC5540112 (mAbs, 2017)
Changes are numbered by the printed parent chain.

B1: Fab 9O12, Fab fragment of the mouse monoclonal IgG1,k 9O12 (Fab, V domains shown)
VH: QVQLQESGAELVKPGASVKMSCKASGYTFTSYNMHWVKQTPGQGLEWIGGIYPGNGDTSFNQKFKGKATLTADKSSRTAYMQLSSLTSEDSAVYYCARGTVVGDWYFDVWGAGTTLTVSS
VL: DVLMTQTPLSLPVSLGDQASISCRSSQSLENSNGNTYLNWYLQKPGQSPQLLIYRVSNRFSGVLDRFSGSGSGTDFTLKISRVEAEDLGVYFCLQLTHVPWTFGGGTKLEIK
B2: ACT010, humanized anti-GPVI Fab (VL3b + VH3) (Fab, V domains shown)
VH: QVQLVQSGAEVKKPGASVKVSCKASGYTFTSYNMHWVRQAPGQGLEWMGGIYPGNGDTSYNQKFQGRVTMTRDTSTSTVYMELSSLRSEDTAVYYCARGTVVGDWYFDVWGQGTLVTVSS
VL: DIVMTQTPLSLSVSVGERVTITCKSSQSLENSNGNTYLNWYLQKPGQAPQLLIYRVSNRFSGVPDRFSGSGSGTDFTLTISRVEAEDVGVYYCLQLTHVPWTFGQGTKLEIK
B3: ACT005, humanized anti-GPVI Fab (VL2b + VH2) (Fab, V domains shown)
VH: EVQLVESGGGLVQPGGSLRLSCAASGYTFTSYNMHWVRQAPGKGLEWVGGIYPGNGDTSYNADFKRRFTFSLDTSKSTAYLQMNSLRAEDTAVYYCARGTVVGDWYFDVWGQGTLVTVSS
VL: DIQMTQSPSSLSASVGDRVTITCSASQSLENSNGNTYLNWYQQKPGKAPKLLIYRVSNRFSGVPSRFSGSGSGTDFTLTISSLQPEDFATYYCLQLTHVPWTFGQGTKVEIK
B4: ACT006, humanized anti-GPVI Fab (VL2b + VH3) (Fab, V domains shown)
VH: B2 VH
VL: B3 VL
B5: ACT016, humanized anti-GPVI Fab (VL8b + VH2) (Fab, V domains shown)
VH: B3 VH
VL: B3 VL with S24R, A25S, L78F, F88I, K112T
B6: ACT017, humanized anti-GPVI Fab (VL8b + VH3) (Fab, V domains shown)
VH: B2 VH
VL: B3 VL with S24R, A25S, L78F, F88I, K112T

What was measured:
[1] = target: T1, Recombinant GPVI-Fc (extracellular domain of human GPVI fused to human IgG1 Fc domain) (Homo sapiens, UniProt Q9HCN6); experiment: SPR
[2] = target: T1, Recombinant GPVI-Fc (extracellular …); experiment: ELISA

T1 sequence (Q9HCN6 21-267): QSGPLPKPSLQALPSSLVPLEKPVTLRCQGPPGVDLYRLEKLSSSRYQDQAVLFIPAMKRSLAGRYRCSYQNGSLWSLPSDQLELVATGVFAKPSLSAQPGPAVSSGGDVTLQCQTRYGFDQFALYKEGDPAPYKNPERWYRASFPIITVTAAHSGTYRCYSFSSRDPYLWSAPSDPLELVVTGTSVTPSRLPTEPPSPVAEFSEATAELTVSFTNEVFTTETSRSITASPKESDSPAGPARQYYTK

| Binder | Kd [1] [nM] | binding result [2] |
| --- | --- | --- |
| B1 | 17 |  |
| B2 |  | binds |
| B3 | < 25 |  |
| B4 | < 8 |  |
| B5 | < 25 |  |
| B6 | 4.1 |  |
